# Patent US20200392233A1 (ACCELERON PHARMA, published 2020)
# Numbering of substitutions follows the chain as printed.
# T1: rat Alk7-Fc comprising protein (rat, UniProt P70539 26-113)
# T1 construct: not shown: Fc portion and any linker of the Alk7-Fc comprising protein are not described
# T1 sequence: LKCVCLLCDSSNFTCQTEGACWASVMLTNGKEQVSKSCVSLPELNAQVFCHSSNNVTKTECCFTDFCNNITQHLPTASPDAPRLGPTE
# B1: G05 (antibody, V domains shown)
# VH: QVQLVQSGAEVKKPGSSVKVSCKASGGTFSGQAISWVRQAPGQGLEWMGGIIPSFGTARYAQKFQGRVTITADESTSTAYMELSSLRSEDTAVYYCARTPYYDSSGYLDVWGQGTMVTVSS
# VL: DIQMTQSPSSLSASVGDRVTITCQASHDIDNYLNWYQQKPGKAPKLLIYYASNLKTGVPSRFSGSGSGTDFTFTISSLQPEDIATYYCQQSRASPPTFGGGTKVEIK
# notes: also called mAb G05; ALK7 mAb G05
# B2: C03 (antibody, V domains shown)
# VH: QLQLQESGPGLVKPSETLSLTCTVSGGSISSSAYYWAWIRQPPGKGLEWIGSIYLSGSTTYNPSLKSRVTISVDTSKNQFSLKLSSVTAADTAVYYCARDGRYQSRSPDYYYGMDVWGQGTTVTVSS
# VL: EIVLTQSPGTLSLSPGERATLSCKASQSVSSSYLAWYQQKPGQAPRLLIYGAFSRANGIPDRFSGSGSGTDFTLTISRLEPEDFAVYYCQQLVSYPFTFGGGTKVEIK
# notes: also called mAb C03; ALK7 mAb C03
# B3: J01 (antibody, V domains shown)
# VH: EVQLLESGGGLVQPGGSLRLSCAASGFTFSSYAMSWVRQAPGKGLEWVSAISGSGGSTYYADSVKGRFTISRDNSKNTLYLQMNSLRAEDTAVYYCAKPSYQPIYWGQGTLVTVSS
# VL: DIQMTQSPSSVSASVGDRVTITCRASQGISSWLAWYQQKPGKAPKLLIYAASSLQSGVPSRFSGSGSGTDFTLTISSLQPEDFATYYCQQAASYPLTFGGGTKVEIK
# notes: also called antibody J01
# B4: K02 (antibody, V domains shown)
# VH: QVQLVQSGAEVKKPGSSVKVSCKASGGTFSSSAIGWVRQAPGQGLEWMGGIWPIFGTALYAQKFQGRVTITADESTSTAYMELSSLRSEDTAVYYCARDPREYIHVFDIWGQGTMVTVSS
# VL: B3 VL with V11L, G28S, W32Y, A34N, A50G, A92Y, Y94F, L96W, T102I
# notes: also called mAb K02; KO2
# B5: J02 (antibody, V domains shown)
# VH: EVQLLESGGGLVQPGGSLRLSCAASGFTFSVYAMSWVRQAPGKGLEWVSAISGSGDSTVYADSVKGRFTISRDNSKNTLYLQMNSLRAEDTAVYYCAKPSYQPIYWGQGTLVTVSS
# VL: B3 VL
# notes: also called mAb J02; ALK7 mAb J02
# B6: L02 (antibody, V domains shown)
# VH: QVQLVQSGAEVKKPGASVKVSCKASGYTFAGYNMHWVRQAPGQGLEWVGIINPNSGWTNYAQKFQGRVTMTRDTSVSAAYMELSRLRSDDTAVYYCARDPVGARYEVFDYWGQGTLVTVSS
# VL: EIVMTQSPATLSVSPGERATLSCRASQSVSSALAWYQQKPGQAPRLLIYSAFTRASGIPARFSGSGSGTEFTLTISSLQSEDFAVYYCQQAWAFPLTFGGGTKVEIK
# notes: also called mAb L02
# What was measured:
# [1] = target: T2, ALK7-Fc comprising protein; assay: SPR (Biacore T100/T200) at 25 °C, antibody captured on FAB chip, ALK7-Fc analyte, 1:1 fit
# T2 construct: It is probably the human protein
# Description: (§1) Experiments were performed using a Biacore T100/T200 biosensor (Biacore/GE Healthcare) at 25 and 37° C. ALK7 antibodies were captured on custom made FAB chip. A concentration series of ALK7-Fc comprising protein was injected over the flow cells at a flow rate of […]. To obtain kinetic rate constants the corrected data were fit to a 1:1 interaction model using BiaEvaluation software (GE Healthcare). The equilibrium binding constant KD was determined by the ratio of binding rate constants kd/ka.
# [2] = target: T1, rat Alk7-Fc comprising protein; assay: SPR (Biacore T100/T200), antibody captured on FAB chip, Alk7-Fc analyte, 1:1 fit
# Description: as §1
# T2 sequence (Q8NER5 22-113): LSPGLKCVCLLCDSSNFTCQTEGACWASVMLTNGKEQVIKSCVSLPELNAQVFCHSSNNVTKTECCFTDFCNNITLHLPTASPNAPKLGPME
binder,measurement,setting,value
B1,Kd,[1],0.87 nM
same,koff,[1],2.59e-05 s⁻¹
same,kon,[1],29900 M⁻¹ s⁻¹
B2,Kd,[1],0.33 nM
same,koff,[1],1.27e-05 s⁻¹
same,kon,[1],38300 M⁻¹ s⁻¹
B3,koff,[2],0.000478 s⁻¹
B4,Kd,[1],12.4 nM
same,koff,[1],0.000291 s⁻¹
same,kon,[1],23500 M⁻¹ s⁻¹
B5,Kd,[1],5.33 nM
same,koff,[1],0.000126 s⁻¹
same,kon,[1],23600 M⁻¹ s⁻¹
B6,Kd,[1],0.44 nM
same,koff,[1],1.21e-05 s⁻¹
same,kon,[1],27400 M⁻¹ s⁻¹
